Assay: observation during stepwise remodeling
Settings: glycan lost; control: commercial rhGAA

## recombinant human acid α-glucosidase (rhGAA, Lumizyme): Endo-F3 deglycosylation
  stability_or_folding: decreases
